Experimental findings from patent US20200317768A1 (published 2020) are described below.

Common to all, as to test: SPR (Biacore), KD of SG1 / KD of variant;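 further: relative to parent M103205H795-SG1 carrying the SG1 human heavy chain constant region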
Test [1] has as its target T1, cynomolgus monkey FcγRIIa1 extracellular domain, C-terminal His-tag (cynomolgus monkey).
T1 construct: also called cyno FcγRIIa1; cynoFcgRIIa1; not shown: His-tag added to C-terminus
T1 chain: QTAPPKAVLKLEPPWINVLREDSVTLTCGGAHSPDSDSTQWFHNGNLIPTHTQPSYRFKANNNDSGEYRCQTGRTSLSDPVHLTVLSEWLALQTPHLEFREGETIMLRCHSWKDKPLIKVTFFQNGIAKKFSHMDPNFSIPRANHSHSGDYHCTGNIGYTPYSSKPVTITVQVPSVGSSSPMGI

The target in test [2] is T2, cynomolgus monkey FcγRIIa2 extracellular domain, C-terminal His-tag (cynomolgus monkey).
T2 construct: also called cyno FcγRIIa2; cynoFcgRIIa2; not shown: His-tag added to C-terminus
T2 chain: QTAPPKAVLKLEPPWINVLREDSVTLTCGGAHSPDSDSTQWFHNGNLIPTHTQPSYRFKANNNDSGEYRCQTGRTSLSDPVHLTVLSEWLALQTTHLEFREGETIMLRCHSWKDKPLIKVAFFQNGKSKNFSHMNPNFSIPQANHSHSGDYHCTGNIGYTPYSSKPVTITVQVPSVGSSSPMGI

Test [3] addresses T3, cynomolgus monkey FcγRIIb extracellular domain, C-terminal His-tag (cynomolgus monkey).
T3 construct: also called cyno FcγRIIb; cynoFcγRIIb; not shown: His-tag added to C-terminus
T3 chain: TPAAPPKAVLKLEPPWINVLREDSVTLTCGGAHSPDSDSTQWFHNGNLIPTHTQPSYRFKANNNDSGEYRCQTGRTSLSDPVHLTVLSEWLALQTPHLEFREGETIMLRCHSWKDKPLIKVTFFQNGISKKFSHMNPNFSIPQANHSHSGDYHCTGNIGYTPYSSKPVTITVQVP

In test [4] the target is T4, cynomolgus monkey FcγRIIIaS extracellular domain, C-terminal His-tag (cynomolgus monkey, UniProt A3RFZ7 21-206 (rhesus entry)).
T4 construct: also called cyno FcγRIIIaS; cynoFcγRIIIaS; not shown: His-tag added to C-terminus
T4 sequence (A3RFZ7 21-206): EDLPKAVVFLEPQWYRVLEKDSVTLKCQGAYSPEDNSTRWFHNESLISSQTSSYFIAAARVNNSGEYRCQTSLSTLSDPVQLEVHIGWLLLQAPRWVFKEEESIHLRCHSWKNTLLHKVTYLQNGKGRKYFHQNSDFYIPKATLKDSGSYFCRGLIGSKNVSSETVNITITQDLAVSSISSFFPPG

Test [5] addresses T5, human FcγRIIaH extracellular domain, C-terminal His-tag (human, UniProt P12318 34-217).
T5 construct: also called human FcγRIIa (type H); FcgRIIaH; not shown: His-tag added to C-terminus
T5 sequence: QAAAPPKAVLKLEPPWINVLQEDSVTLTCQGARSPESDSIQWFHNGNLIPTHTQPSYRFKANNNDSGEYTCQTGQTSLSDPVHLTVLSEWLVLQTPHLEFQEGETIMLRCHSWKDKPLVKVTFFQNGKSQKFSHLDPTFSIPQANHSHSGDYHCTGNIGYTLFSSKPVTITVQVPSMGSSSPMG

In test [6] the target is T6, human FcγRIIaR extracellular domain, C-terminal His-tag (human, UniProt P12318 34-217).
T6 construct: also called human FcγRIIa (type R); FcgRIIaR; not shown: His-tag added to C-terminus
T6 chain: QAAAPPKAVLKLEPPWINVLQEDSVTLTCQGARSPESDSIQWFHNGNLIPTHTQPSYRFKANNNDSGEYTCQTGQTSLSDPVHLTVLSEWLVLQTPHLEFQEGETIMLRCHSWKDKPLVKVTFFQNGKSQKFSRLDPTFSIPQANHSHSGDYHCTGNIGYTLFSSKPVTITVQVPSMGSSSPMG

Test [7] addresses T7, human FcγRIIIaV extracellular domain, C-terminal His-tag (human, UniProt P08637 17-208).
T7 construct: also called FcgRIIIaV; not shown: His-tag added to C-terminus

T7 sequence (P08637 17-208 F176V): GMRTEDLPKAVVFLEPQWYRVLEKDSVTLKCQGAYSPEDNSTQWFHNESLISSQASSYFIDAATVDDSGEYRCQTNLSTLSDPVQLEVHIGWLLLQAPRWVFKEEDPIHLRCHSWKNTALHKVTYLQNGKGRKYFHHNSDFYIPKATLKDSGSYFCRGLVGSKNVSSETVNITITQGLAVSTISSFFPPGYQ

B1: M103205H795-MY274/M103202L889-SK1 (antibody, human IgG1, kappa)
heavy: QVTLKESGPVLVKPTETLTLTCTVSGIDLSHDDISWVRQAPGKGLEWVGIISYAGSTYYASWAKGRLTISKDTSKNQVVLTMTNMDPVDTATYYCARGVPAYSHGGDLWGQGTLVTVSSASTKGPSVFPLAPSSKSTSGGTAALGCLVKDYFPEPVTVSWNSGALTSGVHTFPAVLQSSGLYSLSSVVTVPSSSLGTQTYICNVNHKPSNTKVDKKVEPKSCDKTHTCPPCPAPELLTGPSVFLFPPKPKDTLMISRTPEVTCVVVDVSDEDPEVKFNWYVDGVEVHNAKTKPREEQYNSTYRVVSVLTVLHQDWLNGKEYKCKVSNKALPKPIEKTISKAKGQPREPQVYTLPPSREEMTKNQVSLTCLVKGFYPSDIAVEWESNGQPENNYKTTPKVLDSDGSFFLYSKLTVDKSRWQQGNVFSCSVMHEALHNHYTQKSLSLSP
light: DIVMTQSPATLSLSPGERATLSCTSSQSVYHANWLSWFQQKPGQPPKLLIYWASTLAYGVPSRFSGSGSGTDFTLTISSLQPEDAATYYCAGGYGGGRYAFGQGTKVEIKRTVAAPSVFIFPPSDEQLKSGTASVVCLLNNFYPREAKVQWKVDNALQSGNSQESVTEQDSKDSTYSLSSTLTLSKADYEKHKVYACEVTHQGLSSPVTKSFNRGEC
With B1, the “KD fold (SG1 = 1)” value in test [1] is 3.6 fold; in test [2], 6.4 fold; in test [3], 7.8 fold; in test [4], 0.58 fold; in test [5] it was 8.3 fold; in test [6], 6.5 fold. Further, the “KD fold (SG1 = 1)” value in test [7] came to 0.33 fold.

B2: M103205H795-MY276/M103202L889-SK1 (antibody, human IgG1, kappa)
heavy: QVTLKESGPVLVKPTETLTLTCTVSGIDLSHDDISWVRQAPGKGLEWVGIISYAGSTYYASWAKGRLTISKDTSKNQVVLTMTNMDPVDTATYYCARGVPAYSHGGDLWGQGTLVTVSSASTKGPSVFPLAPSSKSTSGGTAALGCLVKDYFPEPVTVSWNSGALTSGVHTFPAVLQSSGLYSLSSVVTVPSSSLGTQTYICNVNHKPSNTKVDKKVEPKSCDKTHTCPPCPAPELLIGPSVFLFPPKPKDTLMISRTPEVTCVVVDVSDEDPEVKFNWYVDGVEVHNAKTKPREEQYNSTYRVVSVLTVLHQDWLNGKEYKCKVSNKALPKPIEKTISKAKGQPREPQVYTLPPSREEMTKNQVSLTCLVKGFYPSDIAVEWESNGQPENNYKTTPKVLDSDGSFFLYSKLTVDKSRWQQGNVFSCSVMHEALHNHYTQKSLSLSP
light: DIVMTQSPATLSLSPGERATLSCTSSQSVYHANWLSWFQQKPGQPPKLLIYWASTLAYGVPSRFSGSGSGTDFTLTISSLQPEDAATYYCAGGYGGGRYAFGQGTKVEIKRTVAAPSVFIFPPSDEQLKSGTASVVCLLNNFYPREAKVQWKVDNALQSGNSQESVTEQDSKDSTYSLSSTLTLSKADYEKHKVYACEVTHQGLSSPVTKSFNRGEC
As to B2, the “KD fold (SG1 = 1)” value in test [1] amounted to 2.9 fold; in test [2], 4.6 fold; in test [3], 5.3 fold; in test [4], 0.3 fold; in test [5], 13 fold; in test [6], 4.4 fold. Besides, the “KD fold (SG1 = 1)” value in test [7] was found to be 0.14 fold.

B3: M103205H795-MY280/M103202L889-SK1 (antibody, human IgG1, kappa)
heavy: QVTLKESGPVLVKPTETLTLTCTVSGIDLSHDDISWVRQAPGKGLEWVGIISYAGSTYYASWAKGRLTISKDTSKNQVVLTMTNMDPVDTATYYCARGVPAYSHGGDLWGQGTLVTVSSASTKGPSVFPLAPSSKSTSGGTAALGCLVKDYFPEPVTVSWNSGALTSGVHTFPAVLQSSGLYSLSSVVTVPSSSLGTQTYICNVNHKPSNTKVDKKVEPKSCDKTHTCPPCPAPELLVGPSVFLFPPKPKDTLMISRTPEVTCVVVDVSDEDPEVKFNWYVDGVEVHNAKTKPREELYNSTYRVVSVLTVLHQDWLNGKEYKCKVSNKALPKPIEKTISKAKGQPREPQVYTLPPSREEMTKNQVSLTCLVKGFYPSDIAVEWESNGQPENNYKTTPPVLDSDGSFFLYSKLTVDKSRWQQGNVFSCSVMHEALHNHYTQKSLSLSP
light: DIVMTQSPATLSLSPGERATLSCTSSQSVYHANWLSWFQQKPGQPPKLLIYWASTLAYGVPSRFSGSGSGTDFTLTISSLQPEDAATYYCAGGYGGGRYAFGQGTKVEIKRTVAAPSVFIFPPSDEQLKSGTASVVCLLNNFYPREAKVQWKVDNALQSGNSQESVTEQDSKDSTYSLSSTLTLSKADYEKHKVYACEVTHQGLSSPVTKSFNRGEC
For B3, the “KD fold (SG1 = 1)” value came out at 3.2 fold in test [1]; 4.3 fold in test [2]; 5.5 fold in test [3]; 0.2 fold in test [4]; 8.5 fold in test [5]; 2.4 fold in test [6]. Besides, the “KD fold (SG1 = 1)” value in test [7] was 0.18 fold.

B4: M103205H795-MY278/M103202L889-SK1 (antibody, human IgG1, kappa)
heavy: QVTLKESGPVLVKPTETLTLTCTVSGIDLSHDDISWVRQAPGKGLEWVGIISYAGSTYYASWAKGRLTISKDTSKNQVVLTMTNMDPVDTATYYCARGVPAYSHGGDLWGQGTLVTVSSASTKGPSVFPLAPSSKSTSGGTAALGCLVKDYFPEPVTVSWNSGALTSGVHTFPAVLQSSGLYSLSSVVTVPSSSLGTQTYICNVNHKPSNTKVDKKVEPKSCDKTHTCPPCPAPELLMGPSVFLFPPKPKDTLMISRTPEVTCVVVDVSDEDPEVKFNWYVDGVEVHNAKTKPREELYNSTYRVVSVLTVLHQDWLNGKEYKCKVSNKALPKPIEKTISKAKGQPREPQVYTLPPSREEMTKNQVSLTCLVKGFYPSDIAVEWESNGQPENNYKTTPPVLDSDGSFFLYSKLTVDKSRWQQGNVFSCSVMHEALHNHYTQKSLSLSP
light: DIVMTQSPATLSLSPGERATLSCTSSQSVYHANWLSWFQQKPGQPPKLLIYWASTLAYGVPSRFSGSGSGTDFTLTISSLQPEDAATYYCAGGYGGGRYAFGQGTKVEIKRTVAAPSVFIFPPSDEQLKSGTASVVCLLNNFYPREAKVQWKVDNALQSGNSQESVTEQDSKDSTYSLSSTLTLSKADYEKHKVYACEVTHQGLSSPVTKSFNRGEC
For B4, the “KD fold (SG1 = 1)” value in test [1] stood at 1.1 fold; in test [2] it was 1.4 fold; in test [3], 1.6 fold; in test [4], 0.49 fold; in test [5], 1.3 fold; in test [6] it was 0.7 fold. In addition, the “KD fold (SG1 = 1)” value in test [7] came out at 0.24 fold.

B5: M103205H795-MY279/M103202L889-SK1 (antibody, human IgG1, kappa)
heavy: QVTLKESGPVLVKPTETLTLTCTVSGIDLSHDDISWVRQAPGKGLEWVGIISYAGSTYYASWAKGRLTISKDTSKNQVVLTMTNMDPVDTATYYCARGVPAYSHGGDLWGQGTLVTVSSASTKGPSVFPLAPSSKSTSGGTAALGCLVKDYFPEPVTVSWNSGALTSGVHTFPAVLQSSGLYSLSSVVTVPSSSLGTQTYICNVNHKPSNTKVDKKVEPKSCDKTHTCPPCPAPELLHGPSVFLFPPKPKDTLMISRTPEVTCVVVDVSDEDPEVKFNWYVDGVEVHNAKTKPREELYNSTYRVVSVLTVLHQDWLNGKEYKCKVSNKALPKPIEKTISKAKGQPREPQVYTLPPSREEMTKNQVSLTCLVKGFYPSDIAVEWESNGQPENNYKTTPPVLDSDGSFFLYSKLTVDKSRWQQGNVFSCSVMHEALHNHYTQKSLSLSP
light: DIVMTQSPATLSLSPGERATLSCTSSQSVYHANWLSWFQQKPGQPPKLLIYWASTLAYGVPSRFSGSGSGTDFTLTISSLQPEDAATYYCAGGYGGGRYAFGQGTKVEIKRTVAAPSVFIFPPSDEQLKSGTASVVCLLNNFYPREAKVQWKVDNALQSGNSQESVTEQDSKDSTYSLSSTLTLSKADYEKHKVYACEVTHQGLSSPVTKSFNRGEC
B5: the “KD fold (SG1 = 1)” value in test [1] worked out at 1.1 fold; in test [2], 1.5 fold; in test [3] it was 2 fold; in test [4] it was 0.15 fold; in test [5], 4.9 fold; in test [6] it was 1.5 fold. Moreover, in test [7], the “KD fold (SG1 = 1)” value was found to be 0.12 fold.
